Results as given in PMC5667739.

Target: GII.10 P domain (Vietnam026) (norovirus GII.10 (Vietnam026))
Test: crystal structure

Work on “GII.10 P domain (Vietnam026) (domain or fragment)” yielded a stoichiometry N of 2.
